Experiments:
[1] = target: T1, cynomolgus monkey DR4 with death domain deletion on ExpiCHO-S cells (cynomolgus monkey (Macaca fascicularis)); assay: flow cytometry, ExpiCHO-S cells expressing cynomolgus monkey DR4, n = 1
T1 construct: also called cynomolgus DR4
T1 chain: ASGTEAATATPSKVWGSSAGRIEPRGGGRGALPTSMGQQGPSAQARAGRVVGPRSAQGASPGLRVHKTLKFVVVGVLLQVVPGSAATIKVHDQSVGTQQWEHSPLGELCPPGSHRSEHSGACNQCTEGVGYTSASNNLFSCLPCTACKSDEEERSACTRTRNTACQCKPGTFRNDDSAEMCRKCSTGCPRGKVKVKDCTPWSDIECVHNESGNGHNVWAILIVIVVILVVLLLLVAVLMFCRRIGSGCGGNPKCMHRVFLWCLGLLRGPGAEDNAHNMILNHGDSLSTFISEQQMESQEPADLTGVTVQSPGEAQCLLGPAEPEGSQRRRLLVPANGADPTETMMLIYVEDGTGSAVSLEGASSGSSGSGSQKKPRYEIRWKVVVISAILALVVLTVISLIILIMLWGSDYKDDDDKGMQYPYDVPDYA
Procedure: (§1) Binding of BisG1-FAPα-FERL/DR4-FERR, BisG1-DR4-FEAL/b12-FEAR and IgG1-DR4-FERR to DR4 of various species commonly used for nonclinical toxicology studies was assessed by flow cytometry using ExpiCHO-S cells transiently expressing DR4 from different animal species. In contrast to other species, rodents only express one DR which has highest homology with human DR5. Therefore, ExpiCHO-S cells transiently expressing rat and mouse DR protein were used instead. All DR constructs lack the intracellular DD to avoid apoptosis of transfected cells upon DR(4) activation. IgG1-b12 was used as negative control.

[2] = target: T1, cynomolgus monkey DR4 with death domain …; assay: flow cytometry, ExpiCHO-S cells expressing cynomolgus monkey DR4, n = 2
Procedure: as §1

[3] = target: T1, cynomolgus monkey DR4 with death domain …; assay: flow cytometry, ExpiCHO-S cells expressing cynomolgus monkey DR4, n = 3
Procedure: as §1

[4] = target: T2, human DR4 (Death Receptor 4), cell surface expressed on human tumor cell lines (human, UniProt O00220 24-468); assay: flow cytometry on MDA-MB-231 cells (endogenous DR4), antibody incubated at 37 °C, gMFI PE
T2 construct: also called TNFRSF10A; TRAIL-R1
T2 sequence: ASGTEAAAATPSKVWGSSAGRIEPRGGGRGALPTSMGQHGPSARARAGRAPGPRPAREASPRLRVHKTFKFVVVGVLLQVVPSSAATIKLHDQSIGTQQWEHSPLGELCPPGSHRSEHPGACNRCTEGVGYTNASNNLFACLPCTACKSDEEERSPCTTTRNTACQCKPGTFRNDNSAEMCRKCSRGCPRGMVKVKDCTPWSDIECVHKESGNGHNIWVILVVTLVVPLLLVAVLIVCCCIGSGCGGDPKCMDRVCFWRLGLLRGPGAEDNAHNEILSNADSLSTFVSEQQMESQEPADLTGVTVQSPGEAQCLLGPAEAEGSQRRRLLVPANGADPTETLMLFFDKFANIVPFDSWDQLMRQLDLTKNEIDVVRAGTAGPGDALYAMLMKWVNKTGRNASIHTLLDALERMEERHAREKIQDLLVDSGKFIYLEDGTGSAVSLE
Procedure: Binding of C1q to membrane-bound BisG1-FAPα-FERL/DR4-FERR was assessed by flow cytometry. MDA-MB-231 cells were harvested as described in Example 3, plated (50,000 cells/well) in round-bottom 96-well plates and incubated with a concentration range of BisG1-FAPα-FERL/DR4-FERR or IgG1-b12-FER control antibody (0.003-30 μg/mL in threefold increments) at 37° C. for 30 min. To assess C1q binding, normal human serum (NHS) (Sanquin, final concentration 20%) was added as a source of C1q and the mixture was incubated at 4° C. for 45 min. Cells were washed twice with FACS buffer (PBS [Lonza, Cat. #BE17-517Q] supplemented with 0.1% [w/v] BSA [Roche, Cat. #10735086001] and 0.02% [w/v] sodium azide [NaN3; bioWORLD, Cat. #41920044-3]) and subsequently incubated with FITC-conjugated rabbit anti-human C1q antibody (DAKO, Cat. #F0254; 1:100 in FACS buffer) at 4° C. for 30 min, protected from light. Within the same experiment, binding of the DR4-antibodies to the MDA-MB-231 cells was confirmed in parallel samples after the incubation with serial dilutions of the tested antibodies.

[5] = target: T3, FcγRIIIa-F158 (CD16a Protein, Human, Recombinant (ECD, 176 Phe, His & AVI Tag)) (human, UniProt P08637 17-208); assay: SPR (Biacore 8K), His-tagged FcγRIIIa-F158 captured on an anti-His chip, antibody as analyte, endpoint response against concentration
T3 construct: extracellular domain; Bought reagent; not shown: His & AVI tag
T3 sequence (P08637 17-208): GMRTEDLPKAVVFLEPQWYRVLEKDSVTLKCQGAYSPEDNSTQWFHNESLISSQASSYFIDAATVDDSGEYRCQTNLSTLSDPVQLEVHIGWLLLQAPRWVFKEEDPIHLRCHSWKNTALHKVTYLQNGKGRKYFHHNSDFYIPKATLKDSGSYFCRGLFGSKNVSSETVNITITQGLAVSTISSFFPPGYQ
Procedure: Binding of BisG1-FAPα-FERL/DR4-FERR to immobilized human His-tagged FcγRs and FcRn was analyzed by SPR using a Biacore 8K SPR system (Cytiva). To this end, anti-His antibodies were covalently immobilized on the surface of Biacore Series S Sensor Chip CM5 (Cytiva, Cat. #29104988) using the Amine Coupling Kit (Cytiva, Cat. #BR100050) and a His Capture Kit (Cytiva, Cat. #29234602) according to the manufacturer's instructions. To assess antibody binding to immobilized human FcγRs, aliquots of the recombinant His-tagged FcγR proteins (Table 24) were diluted in HBS EP+Buffer pH 7.4 (Cytiva, Cat. #BR100669) and used to capture the FcγR proteins on the surface of the anti-His antibody-coated sensors using a flow rate of 10 μL/min and a contact time of 60 s. Captured levels ranged from 434 to 592 RU. After three start-up cycles of HBS-EP+Buffer, concentration ranges of BisG1-FAPα-FERL/DR4-FERR or IgG1-b12 antibodies (Table 25) were injected to generate binding curves on FcγR-captured sensors (active surface). For each antibody sample, a parallel flow cell without captured FcγRs was included (reference surface), which was used for RU background correction.
All sensorgrams were subtracted by the signal of the third start-up cycle with buffer only (mock analyte). […]

B1: IgG1-DR4-FERR (antibody, V domains shown)
VH: QVQLQESGPGLVKPSGTLSLTCAVSGGSISSYSWWSWIRQPPGKGLEWIGELYHSGSTNYNPSLKSRVTISVDKSKNQFSLKLRSVTAADTAVYYCVRGVATIDYWGQGTLVTVSS
VL: QSALTQPPSASGSPGQSVTISCTGTSSDVGGYNFVSWYQQDPGKAPKLLIYEVTKRPSGVPDRFSGSKSGNTASLTVSGLQAEDEADYYCSSYAGSNNVMFGGGTKLTVLG
notes: Bivalent monoclonal IgG1 lambda
Work on B1 yielded an EC50 [1] of 2.57 µg/mL, an EC50 [2] of 1.94 µg/mL and an EC50 [3] of 1.01 µg/mL.

B2: BisG1-FAPα-FERL/DR4-FERR (bispecific antibody, human IgG1, kappa, lambda)
heavy 1: EVQLLESGGGLVQPGGSPRLSCEASGFTFSSYALSWVRQAPGKGLEWVSAISGSGGGRYYADSVKGRFTISRDNSKNTLFLQMNSLRAEDTAVYYCAKEGYSSSGTYWDHWGQGTLVTVSSASTKGPSVFPLAPSSKSTSGGTAALGCLVKDYFPEPVTVSWNSGALTSGVHTFPAVLQSSGLYSLSSVVTVPSSSLGTQTYICNVNHKPSNTKVDKRVEPKSCDKTHTCPPCPAPEFERGPSVFLFPPKPKDTLMISRTPEVTCVVVDVSHEDPEVKFNWYVDGVEVHNAKTKPREEQYNSTYRVVSVLTVLHQDWLNGKEYKCKVSNKALPAPIEKTISKAKGQPREPQVYTLPPSREEMTKNQVSLTCLVKGFYPSDIAVEWESNGQPENNYKTTPPVLDSDGSFLLYSKLTVDKSRWQQGNVFSCSVMHEALHNHYTQKSLSLSPG
light 1: AIQMTQSPSSVSASVGDRVTITCRASQGVSSWLAWYQQKPGRAPKLLIYVASTLQSGVPSRFSGSGSGTDFTLTINSLQPEDFATYYCQQANSFPPTFGQGTRLEMKRTVAAPSVFIFPPSDEQLKSGTASVVCLLNNFYPREAKVQWKVDNALQSGNSQESVTEQDSKDSTYSLSSTLTLSKADYEKHKVYACEVTHQGLSSPVTKSFNRGEC
heavy 2: QVQLQESGPGLVKPSGTLSLTCAVSGGSISSYSWWSWIRQPPGKGLEWIGELYHSGSTNYNPSLKSRVTISVDKSKNQFSLKLRSVTAADTAVYYCVRGVATIDYWGQGTLVTVSSASTKGPSVFPLAPSSKSTSGGTAALGCLVKDYFPEPVTVSWNSGALTSGVHTFPAVLQSSGLYSLSSVVTVPSSSLGTQTYICNVNHKPSNTKVDKRVEPKSCDKTHTCPPCPAPEFERGPSVFLFPPKPKDTLMISRTPEVTCVVVDVSHEDPEVKFNWYVDGVEVHNAKTKPREEQYNSTYRVVSVLTVLHQDWLNGKEYKCKVSNKALPAPIEKTISKAKGQPREPQVYTLPPSREEMTKNQVSLTCLVKGFYPSDIAVEWESNGQPENNYKTTPPVLDSDGSFFLYSRLTVDKSRWQQGNVFSCSVMHEALHNHYTQKSLSLSPG
light 2: QSALTQPPSASGSPGQSVTISCTGTSSDVGGYNFVSWYQQDPGKAPKLLIYEVTKRPSGVPDRFSGSKSGNTASLTVSGLQAEDEADYYCSSYAGSNNVMFGGGTKLTVLGQPKAAPSVTLFPPSSEELQANKATLVCLISDFYPGAVTVAWKADSSPVKAGVETTTPSKQSNNKYAASSYLSLTPEQWKSHRSYSCQVTHEGSTVEKTVAPTECS
notes: Human IgG1 bispecific made by controlled Fab-arm exchange of IgG1-FAPα-FERL and IgG1-DR4-FERR; monovalent for FAPα and for DR4; also called GEN1057
B2 was tested, and the “EC50 (read off the curve)” value [4] was ~0.5 µg/mL.

B3: IgG1-b12 (antibody)
heavy: not shown
light: EIVLTQSPGTLSLSPGERATFSCRSSHSIRSRRVAWYQHKPGQAPRLVIHGVSNRASGISDRFSGSGSGTDFTLTITRVEPEDFALYYCQVYGASSYTFGQGTKLERKRTVAAPSVFIFPPSDEQLKSGTASVVCLLNNFYPREAKVQWKVDNALQSGNSQESVTEQDSKDSTYSLSSTLTLSKADYEKHKVYACEVTHQGLSSPVTKSFNRGEC
notes: HIV gp120 antibody b12 with wild-type IgG1 Fc; also called IgG-b12
B3: binds [5].

Reference: patent US20250002610A1 (Genmab, published 2025)
